Measured values as given in the RNAGym collection of RNA variant scans (doi:10.1073/pnas.2313332121).
Fewer inactive variants are shown than the library holds.

B1: TPR 5TU (parent)
chain: GGAUCUUCUCGAUCUAACAAAAAAGACAAAUCUGCCACAAAGCUUGAGAGCAUCUUCGGAUGCAGAGGCGGCAGCCUUCGGUGGCGCGAUAGCGCCAACGUUCUCAACUAUGACACGCAAAACGCGUGCUCCGUUGAAUGGAGUUUAUCAUG

Variants of: B1
Assay: polymerase ribozyme fitness, log enrichment relative to wild type (log ratio); higher = more active; in vitro selection for triplet polymerase activity
Summary of the method: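 Frozen incubation at −7 °C formed the core of a single, triplicate in vitro selection round applied to PCR-built, transcribed mutant libraries of each subunit of a heterodimeric triplet polymerase ribozyme. Extended constructs were gel-excised, captured with streptavidin beads and amplified by RT-PCR, and input and output libraries were Illumina-sequenced with a filter of ≥10 input reads and ≥1 read per output. Fitness is the logarithm of genotype enrichment relative to wild-type enrichment, with inverse-variance-weighted replicate averaging, and the logarithm is base 2.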

Question: With A23G U101A as the variant, how does the “polymerase ribozyme fitness (log ratio)” value read?
Answer: The value was -3.18.

Question: For C38A C69A G133C A150C, which “polymerase ribozyme fitness (log ratio)” value is on record?
Answer: The value was ≤ -4.2.

Question: Which “polymerase ribozyme fitness (log ratio)” value does the source give for C35U G42C C76A C93A G117C here?
Answer: The value was ≤ -4.2.

Question: Which “polymerase ribozyme fitness (log ratio)” value does the source give for C27U U44G U56A G58C U61A G86U U135C here?
Answer: The value was ≤ -4.2.

Question: For A23C C27U A29G C87U A110G, which “polymerase ribozyme fitness (log ratio)” value is on record?
Answer: The value was ≤ -4.2.

Question: For A21C C57G, which “polymerase ribozyme fitness (log ratio)” value is on record?
Answer: The value was -0.649.

Question: For A20U A21U A37C C96A A121G, which “polymerase ribozyme fitness (log ratio)” value is on record?
Answer: The value was -1.8.

Question: Which “polymerase ribozyme fitness (log ratio)” value does the source give for A12C A16C U31C C32G U53A C93G C118G U151C here?
Answer: Its value is ≤ -4.2.

Question: With A16G A26C C32U A47C U53A A91G C96G as the variant, how does the “polymerase ribozyme fitness (log ratio)” value read?
Answer: Its value is ≤ -4.2.

Question: For U4C A16U G83U U90C A113U U148C, which “polymerase ribozyme fitness (log ratio)” value is on record?
Answer: Its value is ≤ -4.2.

Question: For U9A C27U C36A G42C C69A G80A G136U G141C, which “polymerase ribozyme fitness (log ratio)” value is on record?
Answer: Its value is ≤ -4.2.

Question: For C8G U15C A52G C57G G59U C87G, which “polymerase ribozyme fitness (log ratio)” value is on record?
Answer: Its value is -3.95.

Question: For A16G A28C C36A U44A G48C A49C C76G U77C A91U C103G, which “polymerase ribozyme fitness (log ratio)” value is on record?
Answer: The value was ≤ -4.2.

Question: For A28C A49U U56A G65A G70C A91U G94C G117C U151A, which “polymerase ribozyme fitness (log ratio)” value is on record?
Answer: Its value is ≤ -4.2.

Question: With A28G C38U U61A G67U C85G A98G as the variant, how does the “polymerase ribozyme fitness (log ratio)” value read?
Answer: The value was -3.98.

Question: With U55G A89U C132G as the variant, how does the “polymerase ribozyme fitness (log ratio)” value read?
Answer: The value was -3.98.

Question: Which “polymerase ribozyme fitness (log ratio)” value does the source give for C57U C75U C123G U144C here?
Answer: Its value is -0.394.

Question: For A28U G42U G59C A64C U78C C87A, which “polymerase ribozyme fitness (log ratio)” value is on record?
Answer: Its value is ≤ -4.2.

Question: For C87U U102C A147C, which “polymerase ribozyme fitness (log ratio)” value is on record?
Answer: The value was -2.24.

Question: Which “polymerase ribozyme fitness (log ratio)” value does the source give for A17U C93U C114A C116G here?
Answer: Its value is ≤ -4.2.

Question: With C5G A52C G58A C93A C118U as the variant, how does the “polymerase ribozyme fitness (log ratio)” value read?
Answer: Its value is -3.09.

Question: Which “polymerase ribozyme fitness (log ratio)” value does the source give for C75U G92U C105G A115U here?
Answer: The value was -4.17.

Question: Which “polymerase ribozyme fitness (log ratio)” value does the source give for C96G A142G U145G A147U here?
Answer: Its value is -2.85.

Question: With C75U G83C as the variant, how does the “polymerase ribozyme fitness (log ratio)” value read?
Answer: Its value is -1.13.

Question: With A24U U31A C63G C76A as the variant, how does the “polymerase ribozyme fitness (log ratio)” value read?
Answer: Its value is -3.16.

Question: Which “polymerase ribozyme fitness (log ratio)” value does the source give for A29U A89U G94A C116G G141A here?
Answer: The value was ≤ -4.2.

Question: Which “polymerase ribozyme fitness (log ratio)” value does the source give for G50A C75U G83U C93U G141A here?
Answer: Its value is ≤ -4.2.

Question: With C85U C93U U134G as the variant, how does the “polymerase ribozyme fitness (log ratio)” value read?
Answer: Its value is -4.16.

Question: With G84U A106G U109A A121U C131A G141A U145A as the variant, how does the “polymerase ribozyme fitness (log ratio)” value read?
Answer: Its value is ≤ -4.2.

Question: With G81C G117C A138G as the variant, how does the “polymerase ribozyme fitness (log ratio)” value read?
Answer: Its value is -4.02.

Question: Which “polymerase ribozyme fitness (log ratio)” value does the source give for G126U U135C here?
Answer: Its value is -1.61.

Question: For U53G C93U, which “polymerase ribozyme fitness (log ratio)” value is on record?
Answer: The value was -1.92.

Question: Which “polymerase ribozyme fitness (log ratio)” value does the source give for U13C A20C G83U C85A C93A here?
Answer: The value was ≤ -4.2.

Question: With A16C C38U G80U C96G A142C U148G as the variant, how does the “polymerase ribozyme fitness (log ratio)” value read?
Answer: The value was ≤ -4.2.

Question: With C96G U148A as the variant, how does the “polymerase ribozyme fitness (log ratio)” value read?
Answer: Its value is -3.53.

Question: For C32G U33A C43G G81U G84A A142G, which “polymerase ribozyme fitness (log ratio)” value is on record?
Answer: The value was ≤ -4.2.

Question: With A17U C105A as the variant, how does the “polymerase ribozyme fitness (log ratio)” value read?
Answer: Its value is -1.28.

Question: With A24U G50C C57U C79G C118G U148C as the variant, how does the “polymerase ribozyme fitness (log ratio)” value read?
Answer: Its value is ≤ -4.2.

Question: Which “polymerase ribozyme fitness (log ratio)” value does the source give for A52C C69A C87U U90C A142U here?
Answer: The value was ≤ -4.2.

Question: For C57A A64C C129G, which “polymerase ribozyme fitness (log ratio)” value is on record?
Answer: Its value is ≤ -4.2.

Question: Which “polymerase ribozyme fitness (log ratio)” value does the source give for A49G U53A U144G here?
Answer: Its value is -0.883.

Question: For A37G C54U G59C C69U, which “polymerase ribozyme fitness (log ratio)” value is on record?
Answer: The value was -1.86.

Question: With A47G U90C G92C G128U A137C A147C as the variant, how does the “polymerase ribozyme fitness (log ratio)” value read?
Answer: Its value is ≤ -4.2.

Question: With C5A C10U A41C A49C U139G U151G as the variant, how does the “polymerase ribozyme fitness (log ratio)” value read?
Answer: The value was ≤ -4.2.

Question: For A16G G48A C57A C76U A89C C95A C116G C131A G136C, which “polymerase ribozyme fitness (log ratio)” value is on record?
Answer: The value was ≤ -4.2.

Question: Which “polymerase ribozyme fitness (log ratio)” value does the source give for C18A G86U C103U U145A here?
Answer: The value was -2.81.

Question: For C18G A21C A52G G84U G133C U134C, which “polymerase ribozyme fitness (log ratio)” value is on record?
Answer: Its value is -4.07.

Question: With C57G G140C as the variant, how does the “polymerase ribozyme fitness (log ratio)” value read?
Answer: The value was -4.08.

Question: With G50A C75U C96A A97U as the variant, how does the “polymerase ribozyme fitness (log ratio)” value read?
Answer: Its value is ≤ -4.2.

Question: For C76A C96U A121C, which “polymerase ribozyme fitness (log ratio)” value is on record?
Answer: Its value is 0.584.

Question: Which “polymerase ribozyme fitness (log ratio)” value does the source give for G42C U55A A60U C87U A115U here?
Answer: Its value is ≤ -4.2.

Question: For A21U A73G C129G, which “polymerase ribozyme fitness (log ratio)” value is on record?
Answer: The value was -3.49.

Question: With A49U A66G G84A C87U A98G as the variant, how does the “polymerase ribozyme fitness (log ratio)” value read?
Answer: The value was ≤ -4.2.

Question: Which “polymerase ribozyme fitness (log ratio)” value does the source give for C8U C35U G80A G83A U102G U145C U146C here?
Answer: Its value is ≤ -4.2.

Question: Which “polymerase ribozyme fitness (log ratio)” value does the source give for G83A A106G A119C here?
Answer: The value was -0.0979.

Question: With A21C A29U C43A U55A G83A A107C as the variant, how does the “polymerase ribozyme fitness (log ratio)” value read?
Answer: Its value is ≤ -4.2.

Question: With A39C A41C G65A C96A C103A U111G as the variant, how does the “polymerase ribozyme fitness (log ratio)” value read?
Answer: Its value is ≤ -4.2.

Question: With G58U G86A as the variant, how does the “polymerase ribozyme fitness (log ratio)” value read?
Answer: The value was -1.55.

Question: For A47G G50C G71C G94A U134C, which “polymerase ribozyme fitness (log ratio)” value is on record?
Answer: Its value is ≤ -4.2.

Question: With A21C C75G C96G C131G as the variant, how does the “polymerase ribozyme fitness (log ratio)” value read?
Answer: The value was -4.13.

Question: For G59C U127A, which “polymerase ribozyme fitness (log ratio)” value is on record?
Answer: Its value is -3.77.

Question: With U31G A39G U55A A66C G68C C69U G117A as the variant, how does the “polymerase ribozyme fitness (log ratio)” value read?
Answer: The value was ≤ -4.2.

Question: With A49G G68U G133A as the variant, how does the “polymerase ribozyme fitness (log ratio)” value read?
Answer: Its value is ≤ -4.2.

Question: For C14G U55A G92U, which “polymerase ribozyme fitness (log ratio)” value is on record?
Answer: The value was -2.92.

Question: With A52C G59A as the variant, how does the “polymerase ribozyme fitness (log ratio)” value read?
Answer: The value was -1.18.

Question: With U53C A97U C114G U145A as the variant, how does the “polymerase ribozyme fitness (log ratio)” value read?
Answer: Its value is -3.74.

Question: Which “polymerase ribozyme fitness (log ratio)” value does the source give for A17G A26C A40U A47C G59A G68A U109G C116G A119C here?
Answer: The value was ≤ -4.2.

Question: Which “polymerase ribozyme fitness (log ratio)” value does the source give for A20G G46A U55G G70A C76U G84A C96U C103G C114U G152U here?
Answer: The value was ≤ -4.2.

Question: Which “polymerase ribozyme fitness (log ratio)” value does the source give for G11U C54U C72A U90G G92U U111G U148G here?
Answer: The value was ≤ -4.2.

Question: Which “polymerase ribozyme fitness (log ratio)” value does the source give for C5G A16U C43G C93G A106U A107U here?
Answer: The value was ≤ -4.2.

Question: Which “polymerase ribozyme fitness (log ratio)” value does the source give for A40U A89C here?
Answer: The value was -0.129.

Question: For A20G A21U G59C C69A A98G U109A, which “polymerase ribozyme fitness (log ratio)” value is on record?
Answer: The value was ≤ -4.2.

Question: With U13A U15C A28G U33G C79A C118U U148G as the variant, how does the “polymerase ribozyme fitness (log ratio)” value read?
Answer: The value was ≤ -4.2.

Question: With U6C U56G A64C G143U as the variant, how does the “polymerase ribozyme fitness (log ratio)” value read?
Answer: Its value is ≤ -4.2.

Question: For U6G C35G C95A C99U U102A U111C, which “polymerase ribozyme fitness (log ratio)” value is on record?
Answer: The value was ≤ -4.2.

Question: For G67A C76A, which “polymerase ribozyme fitness (log ratio)” value is on record?
Answer: Its value is -4.16.

Question: With C35U A52U C95G A106U A107G C118G as the variant, how does the “polymerase ribozyme fitness (log ratio)” value read?
Answer: The value was ≤ -4.2.

Question: For C35U C95A, which “polymerase ribozyme fitness (log ratio)” value is on record?
Answer: The value was -0.608.

Question: Which “polymerase ribozyme fitness (log ratio)” value does the source give for A19U A30U U56A G62C C76U here?
Answer: The value was ≤ -4.2.

Question: Which “polymerase ribozyme fitness (log ratio)” value does the source give for A22U G83C G84A U101A C123A here?
Answer: The value was -4.08.

Question: For G46C U101G A107U A137C, which “polymerase ribozyme fitness (log ratio)” value is on record?
Answer: The value was -4.12.

Question: With G42C A49C as the variant, how does the “polymerase ribozyme fitness (log ratio)” value read?
Answer: The value was ≤ -4.2.

Question: For C54A A91G U104G U127A G152A, which “polymerase ribozyme fitness (log ratio)” value is on record?
Answer: Its value is ≤ -4.2.

Question: With U9G G68C G83A G84A C149U as the variant, how does the “polymerase ribozyme fitness (log ratio)” value read?
Answer: Its value is ≤ -4.2.
